Data reported in publication doi:10.1101/2021.12.03.471045 (2021).

B1: EY6A mAb (IgG) (antibody, V domains shown)
VH: EVQLVESGGGVVQPGRSLRLSCAASAFTFSSYDMHWVRQAPGKGLEWVAVISYDGSNKYYADSVKGRFTISRDNSKNTLYLQMNSLRAEDTAVYYCAKDGGKLWVYYFDYWGQGTLVTVSS
VL: not shown
B2: Beta-55 mAb (IgG) (antibody, V domains shown)
VH: QVQLQESGPGLVKPSETLSLTCTVSGDSISSSRYYWGWIRQPPGKGLEWIGTFYYSGITYYNPSLKSRVTIFVDTSKNQFSLKLSSVTAADTAVYYCARPRPPDYYDNSGALLFDIWGQGTMVTVSS
VL: AIRMTQSPSTLSASVGDRVTIACRASQSISAWLAWYQQKPGKAPKLLIYKASSLESGVPSRFSGSGSGTEFTLTINSLQPDDFATYYCQQYISSSPWTFGQGTKVEIK

Key:
[1] = target: T1, early pandemic (Wuhan) SARS-CoV-2 RBD (SARS-CoV-2, UniProt P0DTC2); test: SPR
[2] = target: T1, early pandemic (Wuhan) SARS-CoV-2 RBD; test: SPR; remark: listed apart in the source

| Binder | koff [1] [s⁻¹] | Kd [2] [nM] |
| --- | --- | --- |
| B1 | 0.0048 | – |
| B2 | 0.00018 | 0.177 |
